According to the supplement of paper PMC7877785:
± gives the uncertainty stated by the source.

Assay: self-splicing fitness, log relative to wild type (ln ratio); higher = more splicing; Tetrahymena group I intron in knt gene, E. coli kanamycin selection, DiMSum; sequences stand for … in CUCUCU…GGAGGGAAAAGUUAUCAGGCAUGCACCUGGUAGCUAGUCUUUAAACCAAUAGAUUGCAUCGGUUUAAAAGGCAAGACCGUCAAAUUGCGGGAAAGGGGUCAACAGCCGUUCAGUACCAAGUCUCAGGGGAAACUUUGAGAUGGCCUUGCAAAGGGUAUGGUAAUAAGCUGACGGACAUGGUCCUAACCACGCAGCCAAGUCCUAAGUCAACAGAUCUUCUGUUGAUAUGGAUGCAGUUCACAGACUAAAUGUCGGUCGGGGAAGAUGUAUUCUUCUCAUAAGAUAUAGUCGGACCUCUCCUUAAUGGGAGCUAGCGGAUGAAGUGAUGCAACACUGGAGCCGCUGGGAACUAAUUUGUAUGCGAAAGUAUAUUGAUUAGUUUUGGAGUACUCGUGGUCG
Method in brief: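 Fitness was computed with DiMSum as the error-weighted combination of replicate fold changes, kanamycin versus none, each normalised to wild type. The library randomised all eight intron nucleotides of the P1ex region, with the intron placed in the knt kanamycin-resistance gene on pET-22b(+) in E. coli BL21(DE3). Six replicate transformations were grown overnight at 37°C or 30°C on LB agar with or without 25 μg/mL kanamycin, plus 100 μg/mL carbenicillin, 50 μM IPTG and 0.2% rhamnose. Pooled colonies were amplicon-sequenced on an Illumina HiSeq 2500.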

| Sequence | self-splicing fitness (ln) (30 °C) | self-splicing fitness (ln) (37 °C) |
| --- | --- | --- |
| AAUCAGCAAUAUUACGCUCG | -0.0659 ± 0.091 | -0.114 ± 0.12 |
| GCAGAGCAAUAUUACGAGUG | -4.02 ± 0.48 | -2.25 ± 0.26 |
| UUGAAGCAAUAUUACGUUAG | -0.587 ± 0.1 | 0.138 ± 0.12 |
| CGUUAGCAAUAUUACGGACG | -4.39 ± 0.36 | -2.23 ± 0.25 |
| GCACAGCAAUAUUACGUCAA | -0.993 ± 0.079 | -0.565 ± 0.082 |
| CCUCAGCAAUAUUACGUUAC | -3.54 ± 0.19 | -3.7 ± 0.36 |
| CGAUAGCAAUAUUACGUUAG | -0.734 ± 0.084 | -0.52 ± 0.093 |
| CAAAAGCAAUAUUACGAUCU | -2.14 ± 0.078 | -0.593 ± 0.09 |
| UAUCAGCAAUAUUACGCGUG | -0.43 ± 0.062 | -0.319 ± 0.075 |
| GCGGAGCAAUAUUACGCUAU | -3.16 ± 0.36 | -2.53 ± 0.49 |
| GCACAGCAAUAUUACGAGAA | -2.66 ± 0.25 | -0.185 ± 0.12 |
| CGAAAGCAAUAUUACGGGUA | -2.73 ± 0.16 | -2.57 ± 0.14 |
| UCACAGCAAUAUUACGCACG | -1.22 ± 0.091 | -0.319 ± 0.14 |
| CUGAAGCAAUAUUACGAGGU | -3.28 ± 0.11 | -2.41 ± 0.17 |
| AGACAGCAAUAUUACGCCUA | -1.46 ± 0.16 | -0.402 ± 0.17 |
| UCUUAGCAAUAUUACGAAUU | – | -2.06 ± 0.24 |
| UUAAAGCAAUAUUACGGAGC | -3.99 ± 0.28 | -0.662 ± 0.23 |
| UAGAAGCAAUAUUACGUGUU | -3.84 ± 0.14 | -2.42 ± 0.11 |
| GACUAGCAAUAUUACGUGAA | -0.567 ± 0.056 | -0.302 ± 0.083 |
| UCCAAGCAAUAUUACGGUUC | -3.22 ± 0.22 | -2.56 ± 0.18 |
| GUUCAGCAAUAUUACGUGAC | -1.85 ± 0.11 | -2.22 ± 0.12 |
| UUAGAGCAAUAUUACGUCAA | -1.59 ± 0.16 | -1.15 ± 0.22 |
| AAUGAGCAAUAUUACGUGAG | -3.5 ± 0.23 | -1.78 ± 0.14 |
| CACAAGCAAUAUUACGCAUC | -3.19 ± 0.18 | -2.29 ± 0.18 |
| CCGAAGCAAUAUUACGUUGG | -3.26 ± 0.19 | -2.16 ± 0.19 |
| AAACAGCAAUAUUACGAAUA | -2.67 ± 0.14 | -1.1 ± 0.084 |

| Sequence | self-splicing fitness (ln) (30 °C) | self-splicing fitness (ln) (37 °C) |
| --- | --- | --- |
| GAGUAGCAAUAUUACGGGCU | -1.43 ± 0.17 | -1.94 ± 0.16 |
| CGACAGCAAUAUUACGCCGA | -2.36 ± 0.11 | -0.991 ± 0.094 |
| UGUGAGCAAUAUUACGACAU | -3.682 ± 0.033 | -2.45 ± 0.042 |
| CGAGAGCAAUAUUACGCUGU | – | -3.26 ± 0.38 |
| GCAUAGCAAUAUUACGCAGC | – | -1.68 ± 0.44 |
| ACUCAGCAAUAUUACGUUGG | -3.63 ± 0.15 | -1.49 ± 0.096 |
| GAAAAGCAAUAUUACGGAUG | -2.63 ± 0.1 | -1.14 ± 0.1 |
| CAGCAGCAAUAUUACGGAGG | -1.19 ± 0.082 | -0.627 ± 0.12 |
| UAACAGCAAUAUUACGCAGC | -4.12 ± 0.37 | -3.15 ± 0.4 |
| AUUUAGCAAUAUUACGCGAA | -3.01 ± 0.21 | -0.549 ± 0.16 |
| CCGUAGCAAUAUUACGACUG | -0.0597 ± 0.12 | -0.95 ± 0.15 |
| CGAUAGCAAUAUUACGCUUU | -3.56 ± 0.35 | -3.14 ± 0.34 |
| GUCGAGCAAUAUUACGUACA | -1.02 ± 0.15 | -0.719 ± 0.17 |
| CCCGAGCAAUAUUACGUGUA | -3.33 ± 0.2 | -2.97 ± 0.32 |
| GUGUAGCAAUAUUACGCUUG | -1.07 ± 0.16 | -1.57 ± 0.27 |
| CGUCAGCAAUAUUACGGAAU | -4.05 ± 0.37 | -2.83 ± 0.21 |
| GGGUAGCAAUAUUACGGACG | -1.74 ± 0.13 | -2.1 ± 0.2 |
| UCGAAGCAAUAUUACGAGAU | -4.08 ± 0.42 | -2.66 ± 0.21 |
| CGGUAGCAAUAUUACGGCUG | -4.13 ± 0.25 | -1.05 ± 0.16 |
| AAAUAGCAAUAUUACGUAGU | -3.11 ± 0.099 | -1.79 ± 0.095 |
| AUCCAGCAAUAUUACGUUCA | -1.02 ± 0.068 | -0.265 ± 0.072 |
| GCCCAGCAAUAUUACGGAUA | -0.88 ± 0.078 | 0.215 ± 0.089 |
| CCCUAGCAAUAUUACGGUGA | -2.53 ± 0.11 | -1.23 ± 0.094 |
| GUACAGCAAUAUUACGUUUA | -2.62 ± 0.15 | -1.89 ± 0.11 |
| GCUAAGCAAUAUUACGAACC | -0.414 ± 0.15 | 1.05 ± 0.23 |
| AGUGAGCAAUAUUACGUUAG | -2.97 ± 0.19 | -2.03 ± 0.17 |

| Sequence | self-splicing fitness (ln) (30 °C) | self-splicing fitness (ln) (37 °C) |
| --- | --- | --- |
| CGCGAGCAAUAUUACGGAAC | -3.86 ± 0.22 | -2.43 ± 0.29 |
| CUUCAGCAAUAUUACGAUUA | -3.05 ± 0.41 | -1.55 ± 0.22 |
| UUCCAGCAAUAUUACGGAAG | -2.85 ± 0.19 | -2.16 ± 0.2 |
| ACGCAGCAAUAUUACGACGC | 0.036 ± 0.062 | 0.169 ± 0.082 |
| CAGUAGCAAUAUUACGAUAA | -3.55 ± 0.47 | – |
| UAAAAGCAAUAUUACGGGCA | -0.521 ± 0.094 | 0.0848 ± 0.1 |
| UUGUAGCAAUAUUACGUAUC | -4.12 ± 0.31 | -3.03 ± 0.31 |
| UGUAAGCAAUAUUACGACUG | -0.779 ± 0.11 | -1.14 ± 0.14 |
| UCUUAGCAAUAUUACGAGUG | -0.964 ± 0.065 | -0.162 ± 0.097 |
| UUACAGCAAUAUUACGUCGG | -1.24 ± 0.08 | -0.125 ± 0.087 |
| CGCGAGCAAUAUUACGUCAU | -2.66 ± 0.23 | -1.97 ± 0.33 |
| AUACAGCAAUAUUACGCACA | -0.789 ± 0.11 | 0.62 ± 0.12 |
| ACGGAGCAAUAUUACGUCUU | -2.7 ± 0.35 | -2.06 ± 0.5 |
| ACACAGCAAUAUUACGAAUC | -3.22 ± 0.15 | -2.63 ± 0.21 |
| GCUGAGCAAUAUUACGCGGU | -3.6 ± 0.21 | -2.02 ± 0.3 |
| AAGAAGCAAUAUUACGGCGA | -0.584 ± 0.071 | -0.285 ± 0.088 |
| UUUCAGCAAUAUUACGCGUC | -3.56 ± 0.15 | -2.01 ± 0.14 |
| GGAAAGCAAUAUUACGAAGG | -3.22 ± 0.23 | -2.5 ± 0.38 |
| UUCUAGCAAUAUUACGCCUG | -1.79 ± 0.4 | -1.6 ± 0.49 |
| CAAAAGCAAUAUUACGGCCU | -1.44 ± 0.14 | -1.25 ± 0.12 |
| ACGUAGCAAUAUUACGAGUG | -2.54 ± 0.2 | -1.43 ± 0.15 |
| GGGGAGCAAUAUUACGUCGU | -2.77 ± 0.18 | -1.63 ± 0.21 |
| AAUGAGCAAUAUUACGGACA | -2.93 ± 0.45 | – |
| CCUAAGCAAUAUUACGCUCU | -2.4 ± 0.14 | -2.94 ± 0.3 |
